Laboratory results: PMC5122770, “Homodimerization of the Lymph Vessel Endothelial Receptor LYVE-1 through a Redox-labile Disulfide Is Critical for Hyaluronan Binding in Lymphatic Endothelium*^([image sbox.jpg])” (The Journal of Biological Chemistry, 2016)

How the values were obtained:
[1] = biological target: the molecule itself; test: non-reducing SDS-PAGE with Western blot; CHO cell-derived soluble protein dissolved in LDS sample buffer with NEM; non-reducing
[2] = biological target: the molecule itself; test: non-reducing SDS-PAGE with Western blot; mouse liver and lung tissue, minced and lysed with 5 mM NEM; non-reducing
[3] = biological target: the molecule itself; test: non-reducing SDS-PAGE with Western blot; freshly resected mouse ear skin and lymph node, minced and lysed with 5 mM NEM; non-reducing
[4] = biological target: the molecule itself; test: non-reducing SDS-PAGE with Western blot; whole cell lysate of primary HDLEC lysed without NEM; non-reducing; polyclonal LYVE-1 antibody
[5] = biological target: the molecule itself; test: non-reducing SDS-PAGE with Western blot; cells lysed in LDS sample buffer with 5 mM NEM; non-reducing; polyclonal LYVE-1 antibody, densitometry (Licor Odyssey)

B1: hLYVE-1 Δ238 His10 (soluble full ectodomain, wild type) (domain or fragment, human, UniProt Q9Y5Y7 20-238, looked up)
chain: LVQGSLRAEELSIQVSCRIMGITLVSKKANQQLNFTEAKEACRLLGLSLAGKDQVETALKASFETCSYGWVGDGFVVISRISPNPKCGKNGVGVLIWKVPVSRQFAAYCYNSSDTWTNSCIPEIITTKDPIFNTQTATQTTEFIVSDSTYSVASPYSTIPAPTTTPPAPASTSIPRRKKLICVTEVFMETSTMSTETEPFVENKAAFKNEAAGFGGVPT
notes: signal peptide in the construct (forward primer begins 14 nt before the start ATG); LYVE-1, human, full-length extracellular domain terminating after residue number 238; secreted from CHO cells; Recovered as a mixture of monomers and disulfide-linked dimers; the homodimer was separated by multiple rounds of size exclusion chromatography; also called soluble hLYVE-1 ectodomain; WT LYVE-1 His10; …
binding result [1]: binds

B2: mouse LYVE-1 (native receptor in mouse tissues) (receptor, mouse (endogenous in mouse tissues), UniProt Q8BHC0 24-318, looked up)
chain: ADLVQDLSISTCRIMGVALVGRNKNPQMNFTEANEACKMLGLTLASRDQVESAQKSGFETCSYGWVGEQFSVIPRIFSNPRCGKNGKGVLIWNAPSSQKFKAYCHNSSDTWVNSCIPEIVTTFYPVLDTQTPATEFSVSSSAYLASSPDSTTPVSATTRAPPLTSMARKTKKICITEVYTEPITMATETEAFVASGAAFKNEAAGFGGVPTALLVLALLFFGAAAVLAVCYVKRYVKAFPFTTKNQQKEMIETKVVKEEKADDVNANEESKKTIKNPEEAKSPPKTTVRCLEAEV
notes: LYVE-1, mouse, endogenous in tissue lysates; source: endogenous, lysates of freshly resected mouse ear skin, lymph node, liver and lung
homodimer:monomer ratio [2]: ~2 homodimer:monomer
stoichiometry N [3]: 2

B3: LYVE-1 (native receptor in primary human dermal lymphatic endothelial cells) (receptor, human (endogenous in HDLEC), UniProt Q9Y5Y7 20-322, looked up)
chain: LVQGSLRAEELSIQVSCRIMGITLVSKKANQQLNFTEAKEACRLLGLSLAGKDQVETALKASFETCSYGWVGDGFVVISRISPNPKCGKNGVGVLIWKVPVSRQFAAYCYNSSDTWTNSCIPEIITTKDPIFNTQTATQTTEFIVSDSTYSVASPYSTIPAPTTTPPAPASTSIPRRKKLICVTEVFMETSTMSTETEPFVENKAAFKNEAAGFGGVPTALLVLALLFFGAAAGLGFCYVKRYVKAFPFTNKNQQKEMIETKVVKEEKANDSNPNEESKKTDKNPEESKSPSKTTVRCLEAEV
notes: LYVE-1, human, endogenous receptor of primary human dermal lymphatic endothelial cells; glycosylated; also called lymphatic vessel endothelial receptor LYVE-1; hLYVE-1; source: endogenous, primary HDLEC whole cell lysate
stoichiometry N [4]: 2

B4: full-length wild-type hLYVE-1 (in HEK 293T cells) (receptor, human, UniProt Q9Y5Y7 20-322, looked up)
chain: LVQGSLRAEELSIQVSCRIMGITLVSKKANQQLNFTEAKEACRLLGLSLAGKDQVETALKASFETCSYGWVGDGFVVISRISPNPKCGKNGVGVLIWKVPVSRQFAAYCYNSSDTWTNSCIPEIITTKDPIFNTQTATQTTEFIVSDSTYSVASPYSTIPAPTTTPPAPASTSIPRRKKLICVTEVFMETSTMSTETEPFVENKAAFKNEAAGFGGVPTALLVLALLFFGAAAGLGFCYVKRYVKAFPFTNKNQQKEMIETKVVKEEKANDSNPNEESKKTDKNPEESKSPSKTTVRCLEAEV
notes: also called wild-type receptor; source: HEK 293T, transfected, in lysate
dimer:monomer ratio [5]: 2 dimer:monomer
